The values below come from patent publication US20260001928A1 (CORTERIA PHARMACEUTICALS, priority 2022, published 2026).

*1 amine or outer side, *2 acyl side, *3 side chain or, on linkers, in order; H or OH if unused. Where no end group is shown, it is not given here. Side-chain parts run from the residue outwards. [ ]: non-standard residue; d: D form. The star is where a group is joined. C20 diacid = O=C(O)CCCCCCCCCCCCCCCCCCC(=O)*; C18 diacid = O=C(O)CCCCCCCCCCCCCCCCC(=O)*; C16 diacid = O=C(O)CCCCCCCCCCCCCCC(=O)*; γGlu = O=C(O)[C@H](CCC(=O)[*:2])N[*:1]; C14 diacid = O=C(O)CCCCCCCCCCCCC(=O)*; NMeI = CC[C@H](C)[C@H](NC)C(=O)O; Pentanoyl = CCCCC(=O)*; Aib = CC(C)(N)C(=O)O

The target in the assay is Rat CRF2 a (corticotropin-releasing factor receptor 2), on the A7R5 rat aortic smooth muscle cell line (rat, UniProt P47866 20-411). Briefly: cell-based or functional assay.
Chain of Rat CRF2 a (corticotropin-releasing factor receptor 2), on the A7R5 rat aortic smooth muscle cell line (P47866 20-411): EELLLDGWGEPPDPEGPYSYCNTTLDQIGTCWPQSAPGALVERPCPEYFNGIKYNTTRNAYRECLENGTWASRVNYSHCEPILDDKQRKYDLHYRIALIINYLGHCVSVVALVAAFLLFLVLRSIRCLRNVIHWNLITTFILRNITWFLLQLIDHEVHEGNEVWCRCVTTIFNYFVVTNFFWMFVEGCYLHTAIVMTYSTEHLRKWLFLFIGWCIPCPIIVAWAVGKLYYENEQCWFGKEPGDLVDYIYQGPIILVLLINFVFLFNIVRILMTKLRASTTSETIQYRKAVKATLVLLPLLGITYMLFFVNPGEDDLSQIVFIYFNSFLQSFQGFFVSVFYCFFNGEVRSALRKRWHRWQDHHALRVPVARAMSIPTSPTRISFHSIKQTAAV

In the case of [NMeI]VLSLD[dV]PIKLK([γGlu-C14 diacid])KILLEQEKQKKQREQAETN[Aib]QILAQV-NH2 [peptide of SEQ ID NO: 87], the “EC50 [nM] 0% HSA (cAMP, A7R5 rat aortic smooth muscle cells)” value (“EC50 [nM] 0% HSA” for short) came to 0.32 nM.

B1: peptide of SEQ ID NO: 40 (peptide)
peptide: Ac-IVLSLD[dV]PIKLK([γGlu-C16 diacid])KILLEQEKQKKQREQAETN[Aib]QILAQV-NH2
SMILES: CC[C@H](C)[C@H](NC(C)=O)C(=O)N[C@H](C(=O)N[C@@H](CC(C)C)C(=O)N[C@@H](CO)C(=O)N[C@@H](CC(C)C)C(=O)N[C@@H](CC(=O)O)C(=O)N[C@@H](C(=O)N1CCC[C@H]1C(=O)N[C@H](C(=O)N[C@@H](CCCCN)C(=O)N[C@@H](CC(C)C)C(=O)N[C@@H](CCCCNC(=O)CC[C@H](NC(=O)CCCCCCCCCCCCCCC(=O)O)C(=O)O)C(=O)N[C@@H](CCCCN)C(=O)N[C@H](C(=O)N[C@@H](CC(C)C)C(=O)N[C@@H](CC(C)C)C(=O)N[C@@H](CCC(=O)O)C(=O)N[C@@H](CCC(N)=O)C(=O)N[C@@H](CCC(=O)O)C(=O)N[C@@H](CCCCN)C(=O)N[C@@H](CCC(N)=O)C(=O)N[C@@H](CCCCN)C(=O)N[C@@H](CCCCN)C(=O)N[C@@H](CCC(N)=O)C(=O)N[C@@H](CCCNC(=N)N)C(=O)N[C@@H](CCC(=O)O)C(=O)N[C@@H](CCC(N)=O)C(=O)N[C@@H](C)C(=O)N[C@@H](CCC(=O)O)C(=O)N[C@H](C(=O)N[C@@H](CC(N)=O)C(=O)NC(C)(C)C(=O)N[C@@H](CCC(N)=O)C(=O)N[C@H](C(=O)N[C@@H](CC(C)C)C(=O)N[C@@H](C)C(=O)N[C@@H](CCC(N)=O)C(=O)N[C@H](C(N)=O)C(C)C)[C@@H](C)CC)[C@@H](C)O)[C@@H](C)CC)[C@@H](C)CC)C(C)C)C(C)C
For B1, the “EC50 [nM] 0% HSA” value was determined as 0.59 nM.

B2: peptide of SEQ ID NO: 215 (peptide)
peptide: [NMeI]VLSLD[dV]PIKLK([γGlu-C20 diacid])KILLEQEKQK[Aib]QREQAETN[Aib]QILAQV-NH2
modifications: N-terminus assumed
SMILES: CC[C@H](C)[C@H](NC)C(=O)N[C@H](C(=O)N[C@@H](CC(C)C)C(=O)N[C@@H](CO)C(=O)N[C@@H](CC(C)C)C(=O)N[C@@H](CC(=O)O)C(=O)N[C@@H](C(=O)N1CCC[C@H]1C(=O)N[C@H](C(=O)N[C@@H](CCCCN)C(=O)N[C@@H](CC(C)C)C(=O)N[C@@H](CCCCNC(=O)CC[C@H](NC(=O)CCCCCCCCCCCCCCCCCCC(=O)O)C(=O)O)C(=O)N[C@@H](CCCCN)C(=O)N[C@H](C(=O)N[C@@H](CC(C)C)C(=O)N[C@@H](CC(C)C)C(=O)N[C@@H](CCC(=O)O)C(=O)N[C@@H](CCC(N)=O)C(=O)N[C@@H](CCC(=O)O)C(=O)N[C@@H](CCCCN)C(=O)N[C@@H](CCC(N)=O)C(=O)N[C@@H](CCCCN)C(=O)NC(C)(C)C(=O)N[C@@H](CCC(N)=O)C(=O)N[C@@H](CCCNC(=N)N)C(=O)N[C@@H](CCC(=O)O)C(=O)N[C@@H](CCC(N)=O)C(=O)N[C@@H](C)C(=O)N[C@@H](CCC(=O)O)C(=O)N[C@H](C(=O)N[C@@H](CC(N)=O)C(=O)NC(C)(C)C(=O)N[C@@H](CCC(N)=O)C(=O)N[C@H](C(=O)N[C@@H](CC(C)C)C(=O)N[C@@H](C)C(=O)N[C@@H](CCC(N)=O)C(=O)N[C@H](C(N)=O)C(C)C)[C@@H](C)CC)[C@@H](C)O)[C@@H](C)CC)[C@@H](C)CC)C(C)C)C(C)C
In the case of B2, the “EC50 [nM] 0% HSA” value worked out at 0.04 nM.

B3: peptide of SEQ ID NO: 145 (peptide)
peptide: [NMeI]VLSLD[dV]PIKLK([γGlu-C18 diacid])KILLEQEKQK[Aib]QREQAETN[Aib]QILAQV-NH2
modifications: N-terminus assumed
SMILES: CC[C@H](C)[C@H](NC)C(=O)N[C@H](C(=O)N[C@@H](CC(C)C)C(=O)N[C@@H](CO)C(=O)N[C@@H](CC(C)C)C(=O)N[C@@H](CC(=O)O)C(=O)N[C@@H](C(=O)N1CCC[C@H]1C(=O)N[C@H](C(=O)N[C@@H](CCCCN)C(=O)N[C@@H](CC(C)C)C(=O)N[C@@H](CCCCNC(=O)CC[C@H](NC(=O)CCCCCCCCCCCCCCCCC(=O)O)C(=O)O)C(=O)N[C@@H](CCCCN)C(=O)N[C@H](C(=O)N[C@@H](CC(C)C)C(=O)N[C@@H](CC(C)C)C(=O)N[C@@H](CCC(=O)O)C(=O)N[C@@H](CCC(N)=O)C(=O)N[C@@H](CCC(=O)O)C(=O)N[C@@H](CCCCN)C(=O)N[C@@H](CCC(N)=O)C(=O)N[C@@H](CCCCN)C(=O)NC(C)(C)C(=O)N[C@@H](CCC(N)=O)C(=O)N[C@@H](CCCNC(=N)N)C(=O)N[C@@H](CCC(=O)O)C(=O)N[C@@H](CCC(N)=O)C(=O)N[C@@H](C)C(=O)N[C@@H](CCC(=O)O)C(=O)N[C@H](C(=O)N[C@@H](CC(N)=O)C(=O)NC(C)(C)C(=O)N[C@@H](CCC(N)=O)C(=O)N[C@H](C(=O)N[C@@H](CC(C)C)C(=O)N[C@@H](C)C(=O)N[C@@H](CCC(N)=O)C(=O)N[C@H](C(N)=O)C(C)C)[C@@H](C)CC)[C@@H](C)O)[C@@H](C)CC)[C@@H](C)CC)C(C)C)C(C)C
B3: the “EC50 [nM] 0% HSA” value is 0.05 nM.

B4: peptide of SEQ ID NO: 189 (peptide)
peptide: Ac-IVLSLD[dV]PIKLK([γGlu-C18 diacid])KILLEQEKQKAQREQAETN[Aib]QILAQV-NH2
SMILES: CC[C@H](C)[C@H](NC(C)=O)C(=O)N[C@H](C(=O)N[C@@H](CC(C)C)C(=O)N[C@@H](CO)C(=O)N[C@@H](CC(C)C)C(=O)N[C@@H](CC(=O)O)C(=O)N[C@@H](C(=O)N1CCC[C@H]1C(=O)N[C@H](C(=O)N[C@@H](CCCCN)C(=O)N[C@@H](CC(C)C)C(=O)N[C@@H](CCCCNC(=O)CC[C@H](NC(=O)CCCCCCCCCCCCCCCCC(=O)O)C(=O)O)C(=O)N[C@@H](CCCCN)C(=O)N[C@H](C(=O)N[C@@H](CC(C)C)C(=O)N[C@@H](CC(C)C)C(=O)N[C@@H](CCC(=O)O)C(=O)N[C@@H](CCC(N)=O)C(=O)N[C@@H](CCC(=O)O)C(=O)N[C@@H](CCCCN)C(=O)N[C@@H](CCC(N)=O)C(=O)N[C@@H](CCCCN)C(=O)N[C@@H](C)C(=O)N[C@@H](CCC(N)=O)C(=O)N[C@@H](CCCNC(=N)N)C(=O)N[C@@H](CCC(=O)O)C(=O)N[C@@H](CCC(N)=O)C(=O)N[C@@H](C)C(=O)N[C@@H](CCC(=O)O)C(=O)N[C@H](C(=O)N[C@@H](CC(N)=O)C(=O)NC(C)(C)C(=O)N[C@@H](CCC(N)=O)C(=O)N[C@H](C(=O)N[C@@H](CC(C)C)C(=O)N[C@@H](C)C(=O)N[C@@H](CCC(N)=O)C(=O)N[C@H](C(N)=O)C(C)C)[C@@H](C)CC)[C@@H](C)O)[C@@H](C)CC)[C@@H](C)CC)C(C)C)C(C)C
In the case of B4, the “EC50 [nM] 0% HSA” value is 0.15 nM.

B5: peptide of SEQ ID NO: 206 (peptide)
peptide: Ac-IVLSLD[dV]PIKLK([γGlu-C20 diacid])KILLEQEKQKKQREQAETN[Aib]QILAQV-NH2
SMILES: CC[C@H](C)[C@H](NC(C)=O)C(=O)N[C@H](C(=O)N[C@@H](CC(C)C)C(=O)N[C@@H](CO)C(=O)N[C@@H](CC(C)C)C(=O)N[C@@H](CC(=O)O)C(=O)N[C@@H](C(=O)N1CCC[C@H]1C(=O)N[C@H](C(=O)N[C@@H](CCCCN)C(=O)N[C@@H](CC(C)C)C(=O)N[C@@H](CCCCNC(=O)CC[C@H](NC(=O)CCCCCCCCCCCCCCCCCCC(=O)O)C(=O)O)C(=O)N[C@@H](CCCCN)C(=O)N[C@H](C(=O)N[C@@H](CC(C)C)C(=O)N[C@@H](CC(C)C)C(=O)N[C@@H](CCC(=O)O)C(=O)N[C@@H](CCC(N)=O)C(=O)N[C@@H](CCC(=O)O)C(=O)N[C@@H](CCCCN)C(=O)N[C@@H](CCC(N)=O)C(=O)N[C@@H](CCCCN)C(=O)N[C@@H](CCCCN)C(=O)N[C@@H](CCC(N)=O)C(=O)N[C@@H](CCCNC(=N)N)C(=O)N[C@@H](CCC(=O)O)C(=O)N[C@@H](CCC(N)=O)C(=O)N[C@@H](C)C(=O)N[C@@H](CCC(=O)O)C(=O)N[C@H](C(=O)N[C@@H](CC(N)=O)C(=O)NC(C)(C)C(=O)N[C@@H](CCC(N)=O)C(=O)N[C@H](C(=O)N[C@@H](CC(C)C)C(=O)N[C@@H](C)C(=O)N[C@@H](CCC(N)=O)C(=O)N[C@H](C(N)=O)C(C)C)[C@@H](C)CC)[C@@H](C)O)[C@@H](C)CC)[C@@H](C)CC)C(C)C)C(C)C
Regarding B5, the “EC50 [nM] 0% HSA” value amounted to 0.06 nM.
As for Pentanoyl-VLSLD[dV]PIKLK([γGlu-C14 diacid])KILLEQEKQKKQREQAETN[Aib]QILAQV-NH2 [peptide of SEQ ID NO: 86], the “EC50 [nM] 0% HSA” value was found to be 0.68 nM.

B6: peptide of SEQ ID NO: 144 (peptide)
peptide: [NMeI]VLSLD[dV]PIKLK([γGlu-C18 diacid])KILLEQEKQKAQREQAETN[Aib]QILAQV-NH2
modifications: N-terminus assumed
SMILES: CC[C@H](C)[C@H](NC)C(=O)N[C@H](C(=O)N[C@@H](CC(C)C)C(=O)N[C@@H](CO)C(=O)N[C@@H](CC(C)C)C(=O)N[C@@H](CC(=O)O)C(=O)N[C@@H](C(=O)N1CCC[C@H]1C(=O)N[C@H](C(=O)N[C@@H](CCCCN)C(=O)N[C@@H](CC(C)C)C(=O)N[C@@H](CCCCNC(=O)CC[C@H](NC(=O)CCCCCCCCCCCCCCCCC(=O)O)C(=O)O)C(=O)N[C@@H](CCCCN)C(=O)N[C@H](C(=O)N[C@@H](CC(C)C)C(=O)N[C@@H](CC(C)C)C(=O)N[C@@H](CCC(=O)O)C(=O)N[C@@H](CCC(N)=O)C(=O)N[C@@H](CCC(=O)O)C(=O)N[C@@H](CCCCN)C(=O)N[C@@H](CCC(N)=O)C(=O)N[C@@H](CCCCN)C(=O)N[C@@H](C)C(=O)N[C@@H](CCC(N)=O)C(=O)N[C@@H](CCCNC(=N)N)C(=O)N[C@@H](CCC(=O)O)C(=O)N[C@@H](CCC(N)=O)C(=O)N[C@@H](C)C(=O)N[C@@H](CCC(=O)O)C(=O)N[C@H](C(=O)N[C@@H](CC(N)=O)C(=O)NC(C)(C)C(=O)N[C@@H](CCC(N)=O)C(=O)N[C@H](C(=O)N[C@@H](CC(C)C)C(=O)N[C@@H](C)C(=O)N[C@@H](CCC(N)=O)C(=O)N[C@H](C(N)=O)C(C)C)[C@@H](C)CC)[C@@H](C)O)[C@@H](C)CC)[C@@H](C)CC)C(C)C)C(C)C
With B6, the “EC50 [nM] 0% HSA” value is 0.06 nM.
